{"source": "patent US20230144436A1", "about": "“MUSCLE TARGETING COMPLEXES AND USES THEREOF FOR TREATING MYOTONIC DYSTROPHY” (Dyne Therapeutics, Inc., priority 2020, published 2023)", "molecules": {"B1": {"name": "6-D03 (antibody, V domains shown)", "VH": "QVQLQQPGAELVKPGASVKMSCKASGYTFTRHWITWVKQRPGQGLEWIGDIYPGSGRTNYNEKFKSTATLTVDTSSSTAYMQLSSLTSEDSAVYYCARDGYLYINYFDYWGQGTTLTVSS", "VL": "ENVLTQSPAIMSASPGEKVTMTCSASSSVSFMHWFQQKSSTSPKLWIYDTSKLASGVPGRFSGSGSGSSYSLTISSMAAEDVATYYCFQGSGYPYTFGGGTKLEIK"}, "B2": {"name": "10-H02 (antibody, V domains shown)", "VH": "EVQLVESGGDLVKPGGSLKLSCAASGFTFSDYGMHWVRQGPEKGLEWVAYINSGSSTIYYADTVKGRFTISRDNAKNTLFLQMTSLRSEDTAMYYCARPGDYDNYAMDYWGQGTSVTVSS", "VL": "DIVMTQSHKFLSTSVGDRVSITCKASQDVSVAVAWYQQKPGQSPKLLIYWAYTRHTGVPDRFTGSGSGTEYTLTISSVQAEDLALYYCQQHYNTPPWTFGGGTKLEIK"}, "B3": {"name": "5-H12 (antibody, V domains shown)", "VH": "QIQLQQSGPELVRPGASVKISCKASGYSFTDYCINWVNQRPGQGLEWIGWIYPGSGNTRYSERFKGKATLTVDTSSNTAYMQLSSLTSEDSAVYFCAREDYYPYHGMDYWGQGTSVTVSS", "VL": "DIVLTQSPTSLAVSLGQRATISCRASESVDGYDNSFMHWYQQKPGQPPKLLIFRASNLESGIPARFSGSGSRTDFTLTINPVEAADVATYYCQQSSEDPWTFGGGTKLEIK"}, "B4": {"name": "9-C04 (antibody, V domains shown)", "VH": "EVQLMESGGDLVKPGGSLKLSCAASGFTFSSYGLSWVRQTPDKRLEWVATITSGGSYTYYPDSVKGRFTISRDNARNTLYLQMFSLKSEDTAMYYCALWSLDYWGQGTTLTVSS", "VL": "QIVLTQSPAIMSASPGEKVTMTCSANSSLSYMHWYQQKPGTSPKRWIYDTSELASGVPARFSGSGSGTSYSLTISSMEAEDAATYYCHQRRSYPWTFGGGTKLEIK"}, "B5": {"name": "9-D4 (antibody, V domains shown)", "VH": "QVQLQQSGTELARPGASVKLSCKASGFTFTDYGINWVKQRTGQGLEWIGEIYPSSGNSYYNEKFKAKATLTADKSSSTAYMELRSLTSEDSAVYFCARSTYYGSPIDYWGQGTTLTVSS", "VL": "DIVMTQSHKFMSTPVGDRVSITCKASQDVDTTVAWYQQKPGQSPKLLIYWASTRQIGVPDRFTGSGSGTDFTLTISNVQSEDLADYFCQQYSTYPLTFGGGTKLEIK"}, "B6": {"name": "9-D04 (antibody, V domains shown)", "VH": "B5 VH", "VL": "B5 VL"}, "B7": {"name": "3-A4 (antibody, V domains shown)", "VH": "EVQLQQSGAELVRPGASVKLSCTASGFNIKDDYMYWVKQRPEQGLEWIGWIDPENGDTEYASKFQDKATVTADTSSNTAYLQLSSLTSEDTAVYYCTLWLRRGLDYWGQGTSVTVSS", "VL": "DIVMTQAAPSVPVTPGESVSISCRSSKSLLHSNGYTYLFWFLQRPGQSPQLLIYRMSNLASGVPDRFSGSGSGTAFTLRISRVEAEDVGVYYCMQHLEYPFTFGGGTKLEIK"}, "B8": {"name": "3-A04 (antibody, V domains shown)", "VH": "B7 VH", "VL": "B7 VL"}, "B9": {"name": "3-E5 (antibody, V domains shown)", "VH": "EIQMKQSGAELVKPGASVKISCKASGYSFTGYNMNWVKQSHGKSLEWIGNINPYYGSTGYNQKFKGKATLTVDKSSSTAYMQLNSLTSEDSAVYYCARGDYGYDEGTWFAYWGQGTLVTVSA", "VL": "DIVMSQSPSSLAVSAGEKVTMSCKSSQSLLNSRTRKNYLAWYQQKPEQSPKLLIYWASTRESGVPDRFTGSGSGTDFTLTISSVQAEDLAVYYCKQSYNLPFTFGSGTKLEIK"}, "B10": {"name": "3-E05 (antibody, V domains shown)", "VH": "B9 VH", "VL": "B9 VL"}, "B11": {"name": "8-K6 (antibody, V domains shown)", "VH": "QVHLQQPGAELVKPGASVKMSCKASGYTFTSYWITWVKQRPGQGLEWIGDIFPNSGRTNYDEKFKSKATLTVDTSSSTAYMQLSSLTSEDSAVYFCAREGNFGSLDYWGQGTTLTVSS", "VL": "QIVLTQSPAIMSASPGEKVTMTCSANSNLNYMNWYHQKSGTSPKRWIYDTSKLASGVPARFSASGSGTSYSLTISSMEAEDAATYYCQQWSRNPLTFGAGTRLELK"}, "B12": {"name": "8-K06 (antibody, V domains shown)", "VH": "B11 VH", "VL": "B11 VL"}, "B13": {"name": "8-D15: anti-TfR1 antibody, VH SEQ ID NO: 132, VL SEQ ID NO: 133 (antibody, V domains shown)", "VH": "QVQLKESGPGLVAPSQSLSITCTVSGFSLTSYAITWVRQSPGKGLEWLGLIWTGGGTNYNSALKSRLSISKDNSKSQVFLKMNSLQTDDTARYYCARIYDGYYRYFDVWGTGTTVTVSS", "VL": "RIVLTQTPKFLLVSAGDRVTMTCKASQSVSNDVAWYQQKPGQSPKLLIYYASNRYTGVPDRFTGSGYGTDFTFTISTVQAEDLAVYFCQQDYSSPWTFGGGTKLEIK"}, "B14": {"name": "4-C05 (antibody, V domains shown)", "VH": "QVQLQQSGAELMKPGASVKISCKATGYTFSNYWIEWVKQRPGHGLEWIGEILPGSGSTNYNENFKGKATFTADTSSNTAYMQLSSLTSEDSAVYYCARRGAYGNFHYWGQGTTLTVSS", "VL": "EIVLTQSPALMAASPGEKVTITCSVSSSISSSNLHWYQQKSETSPKPWIYGTSNLASGVPVRFSGSGSGTSYSLTISSMEAEDAATYYCQQWRSYPYTFGGGTKLEIK"}}, "key": {"hTfR1": {"biological_target": "hTfR1 (Homo sapiens, UniProt P02786)", "sequence (P02786 whole entry)": "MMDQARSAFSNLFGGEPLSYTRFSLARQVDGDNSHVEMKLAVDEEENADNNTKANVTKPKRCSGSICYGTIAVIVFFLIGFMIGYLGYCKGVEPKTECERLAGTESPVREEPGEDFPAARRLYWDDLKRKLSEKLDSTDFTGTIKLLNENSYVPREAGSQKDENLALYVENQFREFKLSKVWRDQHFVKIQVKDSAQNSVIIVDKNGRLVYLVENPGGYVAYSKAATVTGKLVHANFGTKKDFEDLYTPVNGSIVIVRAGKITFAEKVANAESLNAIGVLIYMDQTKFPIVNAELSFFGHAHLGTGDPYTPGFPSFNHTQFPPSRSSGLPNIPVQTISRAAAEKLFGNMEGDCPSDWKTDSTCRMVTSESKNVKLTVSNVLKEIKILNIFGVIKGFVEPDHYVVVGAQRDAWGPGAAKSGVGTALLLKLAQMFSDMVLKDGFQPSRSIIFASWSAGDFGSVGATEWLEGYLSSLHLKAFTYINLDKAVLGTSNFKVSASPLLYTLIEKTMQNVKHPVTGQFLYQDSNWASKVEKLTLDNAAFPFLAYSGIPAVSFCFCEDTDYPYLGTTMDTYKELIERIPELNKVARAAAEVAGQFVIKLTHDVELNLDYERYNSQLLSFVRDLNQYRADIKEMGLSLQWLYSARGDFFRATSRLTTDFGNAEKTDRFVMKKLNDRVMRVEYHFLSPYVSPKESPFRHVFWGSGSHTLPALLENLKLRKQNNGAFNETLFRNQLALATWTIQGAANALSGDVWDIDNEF", "assay": "Binding kinetics of anti-TfR1 antibodies on Carterra LSA, hTfR1", "conditions": "Carterra LSA at 25 C", "method": "Selected anti-TfR1 antibodies were tested for their binding affinity to human TfR1 for measurement of Ka (association rate constant), Kd (dissociation rate constant), and KD (affinity). […] The binding experiment was performed on Carterra LSA at 25 C. An anti-mouse IgG and anti-human IgG antibody “lawn” was prepared on a HC30M chip by amine coupling. 59 IgGs (58 mouse mAbs and 1 human mAb) were captured on the chip. Dilution series of hTfR1, cyTfR1, and hTfR2 were injected to the chip for binding (starting from 1000 nM, 1:3 dilution, 8 concentrations).\nBinding data were referenced by subtracting the responses from a buffer analyte injection and globally fitting to a 1:1 Langmuir binding model for estimate of Ka (association rate constant), Kd (dissociation rate constant), and KD (affinity) using the Carterra™ Kinetics software. 5-6 concentrations were used for curve fitting."}, "DMPK [1]": {"system": "DMPK", "assay": "DMPK knockdown by anti-TfR1 antibody-oligonucleotide conjugates in NHP myotubes", "type": "cell-based, non-human primate", "conditions": "conjugate with control DMPK-ASO, 72 hours, concentration not stated (0.5, 5, 50 nM tested)", "method": "(§1) The purified complexes were then tested for cellular internalization and inhibition of the target gene, DMPK. Non-human primate (NHP) or DM1 (donated by DM1 patients) cells were grown in 96-well plates and differentiated into myotubes for 7 days. Cells were then treated with escalating concentrations (0.5 nM, 5 nM, 50 nM) of each complex for 72 hours. Cells were harvested, RNA was isolated, and reverse transcription was performed to generate cDNA. qPCR was performed using TaqMan kits specific for Ppib (control) and DMPK on the QuantStudio 7. The relative amounts of remaining DMPK transcript in treated vs non-treated cells was were calculated and the results are shown in Table 14 and FIG. 20.\nas §1, with “of” for “of the target gene,”, “in” for “in Table 14 and”, “23.” for “20.”"}, "DMPK [2]": {"system": "DMPK", "assay": "DMPK knockdown by anti-TfR1 antibody-oligonucleotide conjugates in DM1 patient myotubes", "type": "cell-based, human", "conditions": "for % knockdown of DMPK in cells from human DM1 patients using Antibody-DMPK ASO conjugate: DM1 patient myotubes, conjugate with control DMPK-ASO, 72 hours, concentration not stated (0.5, 5, 50 nM tested); for activity in delivering a payload (DMPK ASO) and achieving DMPK knockdown compared to the control antibody 15G11: conjugates with control DMPK-ASO, in either cyno cells or human DM1 patient cells", "method": "as §1\nas §1, with “of” for “of the target gene,”, “in” for “in Table 14 and”, “23.” for “20.”"}}}
{"molecule": "B1", "values": [{"measurement": "dissociation rate constant (koff)", "setting": "hTfR1", "value": 107, "unit": "µM"}]}
{"molecule": "B2", "values": [{"measurement": "dissociation rate constant (koff)", "setting": "hTfR1", "value": 342, "unit": "µM"}]}
{"molecule": "B3", "values": [{"measurement": "% knockdown of DMPK in NHP cells using Antibody-DMPK ASO conjugate", "setting": "DMPK [1]", "value": 88, "unit": "%"}, {"measurement": "% knockdown of DMPK in cells from human DM1 patients using Antibody-DMPK ASO conjugate", "setting": "DMPK [2]", "value": 57, "unit": "%"}, {"measurement": "activity in delivering a payload (DMPK ASO) and achieving DMPK knockdown compared to the control antibody 15G11", "setting": "DMPK [2]", "value": "superior activity"}]}
{"molecule": "B4", "values": [{"measurement": "dissociation rate constant (koff)", "setting": "hTfR1", "value": 575, "unit": "µM"}]}
{"molecule": "B5", "values": [{"measurement": "% knockdown of DMPK in NHP cells using Antibody-DMPK ASO conjugate", "setting": "DMPK [1]", "value": 42, "unit": "%"}, {"measurement": "% knockdown of DMPK in cells from human DM1 patients using Antibody-DMPK ASO conjugate", "setting": "DMPK [2]", "value": 62, "unit": "%"}, {"measurement": "activity in delivering a payload (DMPK ASO) and achieving DMPK knockdown compared to the control antibody 15G11", "setting": "DMPK [2]", "value": "superior activity"}]}
{"molecule": "B6", "values": [{"measurement": "dissociation rate constant (koff)", "setting": "hTfR1", "value": 246, "unit": "µM"}]}
{"molecule": "B7", "values": [{"measurement": "% knockdown of DMPK in NHP cells using Antibody-DMPK ASO conjugate", "setting": "DMPK [1]", "value": 77, "unit": "%"}, {"measurement": "% knockdown of DMPK in cells from human DM1 patients using Antibody-DMPK ASO conjugate", "setting": "DMPK [2]", "value": 70, "unit": "%"}, {"measurement": "activity in delivering a payload (DMPK ASO) and achieving DMPK knockdown compared to the control antibody 15G11", "setting": "DMPK [2]", "value": "superior activity"}]}
{"molecule": "B8", "values": [{"measurement": "dissociation rate constant (koff)", "setting": "hTfR1", "value": 195, "unit": "µM"}]}
{"molecule": "B9", "values": [{"measurement": "% knockdown of DMPK in NHP cells using Antibody-DMPK ASO conjugate", "setting": "DMPK [1]", "value": 59, "unit": "%"}, {"measurement": "% knockdown of DMPK in cells from human DM1 patients using Antibody-DMPK ASO conjugate", "setting": "DMPK [2]", "value": 71, "unit": "%"}, {"measurement": "activity in delivering a payload (DMPK ASO) and achieving DMPK knockdown compared to the control antibody 15G11", "setting": "DMPK [2]", "value": "superior activity"}]}
{"molecule": "B10", "values": [{"measurement": "dissociation rate constant (koff)", "setting": "hTfR1", "value": 10, "unit": "µM"}]}
{"molecule": "B11", "values": [{"measurement": "% knockdown of DMPK in NHP cells using Antibody-DMPK ASO conjugate", "setting": "DMPK [1]", "value": 73, "unit": "%"}, {"measurement": "% knockdown of DMPK in cells from human DM1 patients using Antibody-DMPK ASO conjugate", "setting": "DMPK [2]", "value": 34, "unit": "%"}, {"measurement": "activity in delivering a payload (DMPK ASO) and achieving DMPK knockdown compared to the control antibody 15G11", "setting": "DMPK [2]", "value": "superior activity"}]}
{"molecule": "B12", "values": [{"measurement": "dissociation rate constant (koff)", "setting": "hTfR1", "value": 10, "unit": "µM"}]}
{"molecule": "B13", "values": [{"measurement": "dissociation rate constant (koff)", "setting": "hTfR1", "value": 257, "unit": "µM"}]}
{"molecule": "B14", "values": [{"measurement": "dissociation rate constant (koff)", "setting": "hTfR1", "value": 48.5, "unit": "µM"}]}
